# Data from publication PMC8699718, “A structurally conserved site in AUP1 binds the E2 enzyme UBE2G2 and is essential for ER-associated degradation” (PLoS Biology, 2021).
# T1: purified UBE2G2 (UniProt P60604 1-165, ^15N-labeled for NMR)
# T1 construct: UBE2G2, purified recombinant protein used for ITC, FP, MST and NMR; also called apo-UBE2G2; ^15N-labeled UBE2G2
# T1 sequence (looked up): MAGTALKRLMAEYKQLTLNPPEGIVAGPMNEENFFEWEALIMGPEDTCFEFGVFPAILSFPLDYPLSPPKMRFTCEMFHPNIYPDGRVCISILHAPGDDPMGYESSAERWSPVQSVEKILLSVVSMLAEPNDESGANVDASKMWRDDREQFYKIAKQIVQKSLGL
# T2: UBE2G2:G2BR^gp78 complex (UniProt P60604 1-165, ^15N-labeled)
# T2 construct: UBE2G2, as m15; N-terminal Trp residue added for peptide quantification, as m17; gp78 G2BR, residues 574-600, as m17; Complex formed before titration with the gp78 RING; also called G2BR^gp78:UBE2G2
# T2 sequence 1: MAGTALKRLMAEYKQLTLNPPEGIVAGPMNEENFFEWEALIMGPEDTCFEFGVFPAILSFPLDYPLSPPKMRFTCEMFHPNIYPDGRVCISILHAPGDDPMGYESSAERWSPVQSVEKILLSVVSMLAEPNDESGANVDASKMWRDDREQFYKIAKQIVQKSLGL
# T2 sequence 2: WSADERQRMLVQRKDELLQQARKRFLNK
# T3: UBE2G2:G2BR^AUP1 complex (UniProt P60604 1-165, ^15N-labeled)
# T3 construct: UBE2G2, as m15; AUP1 G2BR, residues 378-404, as m16; Complex formed before titration with the gp78 RING; also called G2BR^AUP1:UBE2G2
# T3 sequence 1: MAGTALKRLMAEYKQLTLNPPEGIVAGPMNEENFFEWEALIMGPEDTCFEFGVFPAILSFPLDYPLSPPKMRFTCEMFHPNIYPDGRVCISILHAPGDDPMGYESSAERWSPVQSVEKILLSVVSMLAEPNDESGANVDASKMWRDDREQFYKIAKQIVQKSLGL
# T3 sequence 2: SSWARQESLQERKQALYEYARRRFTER
# T4: UBE2G2 (Homo sapiens, UniProt P60604)
# T4 construct: made in house
# T4 sequence (P60604 1-165): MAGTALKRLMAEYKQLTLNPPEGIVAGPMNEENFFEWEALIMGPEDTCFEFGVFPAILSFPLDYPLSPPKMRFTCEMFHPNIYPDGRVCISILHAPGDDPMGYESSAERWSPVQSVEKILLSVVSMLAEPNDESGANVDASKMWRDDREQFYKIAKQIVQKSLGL
# Assays:
# UBE2G2 [1] = assay: CHX chase: UBE2G2 turnover in HT1080 AUP1 KO cells; format: cell-based, human; details: GFP fusion transfected with MYC-UBE2G2, HT1080 AUP1 KO, compared with GFP-SCR
# Experimental: Fig 7 G2BR^AUP1 protects UBE2G2 from degradation. (A) Indicated cells were assessed for steady state levels and turnover of endogenous UBE2G2 by CHX chase. (B) Transcript levels of endogenous UBE2G2 in AUP1 KO cells compared to HT1080 as determined by qPCR. Mean and standard deviation from three independent experiments is shown. […] (D) AUP1 KO cells were transfected with plasmids encoding MYC-UBE2G2 and GFP fusions of either a scrambled G2BR (SCR), G2BR^gp78, or G2BR^AUP1, and the turnover of UBE2G2 was assessed. (E) Relative abundance of gp78 (left panel) and AUP1 (right panel) in HT1080 cells was determined by resolving indicated amounts (in pmoles) of purified GST-gp78 (aa 429 to 611) or GST-AUP1 (aa 61 to 410) fusions alongside approximately 1 × 10^4 cellular equivalents of cell lysate and immunoblotting with gp78 or AUP1 antibodies. For each antibody, the amount of immunoreactivity in the lysate was compared to a defined quantity of a GST fusion protein of gp78 or AUP1 spanning the epitope recognized by the probing antibody. […] The data underlying this figure can be found in S1 and S8 Data. aa, amino acid; AUP1, ancient ubiquitous protein 1; CHX, cycloheximide; G2BR, UBE2G2 Binding Region; KO, knockout; qPCR, quantitative polymerase chain reaction; WT, wild type. […]
# purified UBE2G2 [2] = biological target: T1, purified UBE2G2; assay: ITC; 30 μM G2BR peptide injected into 3 μM UBE2G2 in the cell, PBS pH 7.4, 25°C, one set of sites model; details: both partners purified
# UBE2G2:G2BR^gp78 complex = biological target: T2, UBE2G2:G2BR^gp78 complex; assay: NMR titration; ^1H-^15N HSQC of ^15N-labeled UBE2G2 at 150 μM, alone or bound to G2BR peptide, titrated with gp78 RING 0 to 450 μM; chemical shift perturbations fitted; 50 mM Tris-Cl pH 7.0, 0.5 mM TCEP, 100 μM zinc sulfate; details: both partners purified
# UBE2G2:G2BR^AUP1 complex = biological target: T3, UBE2G2:G2BR^AUP1 complex; assay: as above; details: both partners purified
# purified UBE2G2 [3] = biological target: T1, purified UBE2G2; assay: as above; details: both partners purified
# UBE2J1/UBC6e = assay: GST pulldown of in vitro translated 35S-UBE2J1; format: binding; details: GST-AUP1 aa 292 to 410, overnight 4°C, pH 7.4
# Experimental: (§1) Fig 3 The AUP1–UBE2G2 interaction is required for ERAD. (A) Equimolar amounts of GST-AUP1 (aa 292 to 410) or GST were immobilized on glutathione beads and binding to the indicated in vitro translated ^35S-labeled E2s was assessed. Left panel is 5% of input used for binding. E2s are referred to by their unique alpha-numeric designation (e.g., UBE2G1 and UBE2J1). (B) HT1080 or UBE2G2 KO cells were transfected with INSIG-1-MYC and degradation assessed by CHX chase. […] (D) Cells were transfected with NHK-MYC and HA-ubiquitin and ubiquitination of NHK assessed following proteasome inhibition and IP (right panel). Left panel is 10% of total cell lysate used for IP, indicating no discernable change in total ubiquitination. (E) Levels of endogenous HRD1 were monitored by CHX chase in the indicated cell types. (F) Ubiquitination of endogenous HRD1 was assessed following IP with HRD1 antiserum. Arrow in upper panel indicates migration of unmodified HRD1. Control immunoprecipitates using rabbit serum are shown for comparison. […]
# (§2) In vitro translated ^35S methionine-labeled E2s were generated using the E. coli T7-S30 Extract System (Promega) and excess ^35S methionine was removed by desalting twice with Zeba Spin Desalting Columns (Thermo Scientific). GST fusion proteins were quantified by Coomassie blue staining. […] Binding was quantified using ImageQuant Software.
# UBE2D3/UBCH5C = assay: GST pulldown of in vitro translated 35S-UBE2D3; format: binding; details: GST-AUP1 aa 292 to 410, overnight 4°C, pH 7.4
# Experimental: as §1, §2
# UBE2G2 [4] = biological target: T4, UBE2G2; assay: GST pulldown of in vitro translated 35S-UBE2G2; format: binding; details: GST-AUP1 aa 292 to 410 on glutathione beads, ~3 pmol GST fusion, ~0.2 pmol E2, overnight 4°C, pH 7.4
# Experimental: Fig 3 The AUP1–UBE2G2 interaction is required for ERAD. (A) Equimolar amounts of GST-AUP1 (aa 292 to 410) or GST were immobilized on glutathione beads and binding to the indicated in vitro translated ^35S-labeled E2s was assessed. Left panel is 5% of input used for binding. E2s are referred to by their unique alpha-numeric designation (e.g., UBE2G1 and UBE2J1). (B) HT1080 or UBE2G2 KO cells were transfected with INSIG-1-MYC and degradation assessed by CHX chase. […] (D) Cells were transfected with NHK-MYC and HA-ubiquitin and ubiquitination of NHK assessed following proteasome inhibition and IP (right panel). Left panel is 10% of total cell lysate used for IP, indicating no discernable change in total ubiquitination. (E) Levels of endogenous HRD1 were monitored by CHX chase in the indicated cell types. (F) Ubiquitination of endogenous HRD1 was assessed following IP with HRD1 antiserum. Arrow in upper panel indicates migration of unmodified HRD1. Control immunoprecipitates using rabbit serum are shown for comparison. The data underlying this figure can be found in S1 Data. aa, amino acid; AUP1, ancient ubiquitous protein 1; CHX, cycloheximide; ERAD, endoplasmic reticulum–associated degradation; IP, immunoprecipitation; KO, knockout; WT, wild type.
# Fig 6 Disruption of UBE2G2:G2BR^AUP1 interaction abrogates AUP1 function in cells. (A) GST or indicated GST-AUP1 fusions (aa 292 to 410, expression shown in Coomassie-stained gel) were immobilized on glutathione beads and binding to ^35S-UBE2G2 was assessed as in Fig 3A. Mutations include 2A (R382A/Q383A), 2E (R382E/Q383E), and 5E (R382E/Q383E/K390E/R398E/R400E). (B) AUP1 KO cells were transfected with NHK-HA and forms of full-length AUP1-FLAG with the indicated point mutations from (A) and NHK degradation assessed by CHX chase. (C) Binding assay performed as in (A) with AUP1 mutants predicted to disrupt hydrophobic interactions with UBE2G2. (D) Cellular assay performed as in (B) with AUP1-FLAG mutants that disrupt interactions with UBE2G2 in vitro in (C). The data underlying this figure can be found in S1 Data. aa, amino acid; AUP1, ancient ubiquitous protein 1; CHX, cycloheximide; G2BR, UBE2G2 Binding Region; KO, knockout; WT, wild type.
# In vitro translated ^35S methionine-labeled E2s were generated using the E. coli T7-S30 Extract System (Promega) and excess ^35S methionine was removed by desalting twice with Zeba Spin Desalting Columns (Thermo Scientific). GST fusion proteins were quantified by Coomassie blue staining. Moreover, 0.1 μg of GST fusion protein (approximately 3 pmol) was prebound to GS 4B (GE Healthcare) and then incubated with approximately 10^5 cpm of ^35S methionine-labeled E2 (approximately 0.2 pmol) in 200 μl Binding Buffer (25 mM Tris-HCl, pH 7.4, 50 mM NaCl, 5 mM DTT, 0.5% IGEPAL CA-630) overnight at 4°C. Beads were extensively washed in Binding Buffer, resolved on Bis/Tris polyacrylamide gels under reducing conditions, dried and visualized on a Typhoon FLA 7000 (GE Healthcare). Binding was quantified using ImageQuant Software.
# UBE2G1 = assay: GST pulldown of in vitro translated 35S-UBE2G1; format: binding; details: GST-AUP1 aa 292 to 410, overnight 4°C, pH 7.4
# Experimental: as §1, §2
# UBE2D2/UBCH5B = assay: GST pulldown of in vitro translated 35S-UBE2D2; format: binding; details: GST-AUP1 aa 292 to 410, overnight 4°C, pH 7.4
# Experimental: as §1, §2
molecule,measurement,setting,value
GFP-G2BR^gp78: GFP fusion of gp78 aa 574 to 600,UBE2G2 degradation and steady state level,UBE2G2 [1],protected UBE2G2 from degradation and increased the steady state level of this E2
SSWARQESLQERKQALYEYARRRFTER (also called AUP1 G2BR; source: synthetic peptide (GenScript)) [G2BR^AUP1 peptide (aa 378 to 404)],Kd,purified UBE2G2 [2],0.0031 µM
"gp78 RING domain (domain or fragment, UniProt Q9UKV5 313-393, looked up, gp78 (aka AMFR or RNF45), RING domain; the limits 313-393 are those of the only gp78-RING construct that the methods name; also called gp78-RING construct (aa 313 to 393)) KNYLRVVGNMEARFAVATPEELAVNNDDCAICWDSMQAARKLPCGHLFHNSCLRSWLEQDTSCPTCRMSLNIADNNRVREE",Kd,UBE2G2:G2BR^gp78 complex,20.3 µM
same,Kd,UBE2G2:G2BR^AUP1 complex,22.5 µM
same,Kd,purified UBE2G2 [3],207 ± 6.4 µM
"GST fusion of AUP1: GST fusion of AUP1 that includes the G2BR (protein, left off: GST, end not stated, kept, GST fusion of AUP1 that includes the G2BR) SPDVQLATLAQRVKEVLPHVPLGVIQRDLAKTGCVDLTITNLLEGAVAFMPEDITKGTQSLPTASASKFPSSGPVTPQPTALTFAKSSWARQESLQERKQALYEYARRRFTERRAQEAD",binding to UBE2J1,UBE2J1/UBC6e,failed to show detectable binding
same,binding to UBE2D3,UBE2D3/UBCH5C,no discernable binding
same,binding to UBE2G2,UBE2G2 [4],bound UBE2G2
same,binding to UBE2G1,UBE2G1,not UBE2G1
same,binding to UBE2D2,UBE2D2/UBCH5B,no discernable binding
